Article doi:10.1101/2025.02.27.640524 (bioRxiv, 2025)

Molecular target: T1, VelB-GFP (full length A. nidulans Velvet-like B fused to GFP) (Aspergillus nidulans, UniProt C8VTS4 1-369)
T1 sequence: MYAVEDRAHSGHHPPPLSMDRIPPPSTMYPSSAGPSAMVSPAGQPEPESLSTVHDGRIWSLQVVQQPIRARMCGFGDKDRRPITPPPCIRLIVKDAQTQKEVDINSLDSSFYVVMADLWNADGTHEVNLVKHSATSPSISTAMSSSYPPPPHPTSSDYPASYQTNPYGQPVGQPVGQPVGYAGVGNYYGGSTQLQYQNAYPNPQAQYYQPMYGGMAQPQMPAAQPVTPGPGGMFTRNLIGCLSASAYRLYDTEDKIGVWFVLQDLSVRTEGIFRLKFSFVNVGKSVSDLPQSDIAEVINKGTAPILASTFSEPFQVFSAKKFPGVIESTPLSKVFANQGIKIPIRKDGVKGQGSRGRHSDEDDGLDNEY
Assay: co-IP

B1: VosA-HA (A. nidulans VosA with HA tag) (natural protein)
chain: MSAANYPDPSLPRPSTSDDFELIVRQNPNRARVAGGKEKERKPVDPPPIVQIRVREEGTYLAQHYLQSPYFFMSCSLYDAQEDAPASIPPSTALTGTLVSSLHRLKDVDNTDGGFFVWGDLSIKVEGDFRLKFSLFEMRKTDVVFLKSIVSERFTVSPPKSFPGMAESTFLSRSFADQGVKLRIRKEPRTLIKRTAPRPEEYPQAAIPRSPSDRTAMQIPGSSYPAPPYQPTSRDYSYYAPVKRQRTSVDYGARGMYDADGRMRQMETYPQTATLYGQPGGYPTPMMGYPSGHGGVPDYAMSYGLPPSAQVPQMQDPAAQSRSSQQATMQSLGMVNPPGTPTPDSARAMMQQAYPRPQYSASTAVLPPLQQSRNYPQGTNGATRGYYEQSPQATPILPSQPLGTSEAERYGVPPGHTGYDHTGSANGTPR
fold abundance of co-precipitated VosA against the VelB^ΔIDD-GFP strain: 10 fold
